Patent US7951775B2, “Methods and pharmaceutical compositions for GnRH-I and GnRH-II modulation of T-cell activity, adhesion, migration and extravasation” (priority 2001, dated 2011)
“Also recorded” adds a separate entry of the source.

Experiments:
normal human T-cells = assay: In-vitro chemotactic migration assay towards SDF-1 through laminin-coated filters; format: cell-based; conditions: 10 nM, at least 18 h pretreatment; four independent experiments
Method: Normal human T-cells (1×10^6 cells/well in rest medium) were pretreated with GnRH-I or GnRH-II (10 nM, >18 hours, 37° C., 7.5% CO2 humidified incubator), washed, resuspended in adhesion medium and fluorescently labeled (50 μg/ml, 30 minutes, 37° C., 7.5% CO2 humidified incubator) with 2′,7′-bis-(2-carboxyethyl)-5-(and-6)-carboxyfluorescein acetoxymethyl (BCECF AM, Molecular Probes, Eugene, Oreg.). The cells were then washed, resuspended in adhesion medium, and added to the upper chambers (2×10^5 cells per 100 μl well) of a 24-well chemotaxis microchamber plate (Corning Inc., Corning, N.Y.). The two compartments of the microchambers were separated by polycarbonate filters ([…] pore size) pre-coated with laminin ([…], about 1.5 hour, 37° C.). […]
Adhesion of T-cells to components of the basement membrane is a crucial step in the series of events that eventually enable T-cells to migrate and extravasate from the blood stream to specific tissues. […] To determine whether GnRH can induce T-cells to migrate towards a chemoattractant, we made use of the Boyden chamber migration assay and scored the number of fluorescence-labeled normal human T-cells which migrated from a medium-containing upper chamber to a chemoattractant-containing lower chamber. […]

EL-4 T-lymphoma cells = assay: Homing of GnRH-treated EL-4 T-lymphoma in vivo into specific organs of normal syngeneic mice; design: species or system mouse; conditions: EL-4 cells treated ex vivo 10 nM; for mean number of EL-4 labeled cells detected in the bone marrow: 48 h, C57BL/6 recipients n=5, untreated 149825±8424; for increase in entry into bone marrow over untreated control cells: C57BL/6 recipients; for entry of EL-4 cells into the spleen / level of EL-4 cells entry into thymus, kidney and liver, or their number in the plasma: vs untreated cells
Method: Mouse EL-4 T-lymphoma cells were incubated without any further treatment or with either GnRH-I or GnRH-II (10 nM) for […] (37° C., 7.5% CO2 in a humidified incubator) and then washed, counted, and fluorescently labeled with BCECF AM (30 minutes 37° C., 7.5% CO2 humidified incubator), as described above.
Normal syngeneic C57BL/6 female recipient mice were then subjected to 300 rad total body irradiation, and several hours later inoculated I.P with 5×10^6 cells/mouse of either untreated or GnRH-treated EL-4 lymphoma cells. In parallel, samples from the treated and GnRH inoculated EL-4 cells were tested by double immunofluorescence (as described above) for the level of their 67 kD LR and TCRαβ. After […], the spleen, thymus, kidney, liver, bone marrow, and a fixed volume of blood were removed from the recipient mice into tubes containing 10 ml PBS, and cell suspensions were prepared from each organ of each individual mouse. Following further dilution in PBS for the kidney (1:3) and liver (1:10), the number of fluorescent cells, as well as the total number of cells in each tube, were counted by flow cytometry (FACSORT).
To assess whether exposure of EL-4 T-lymphoma cells to GnRH modulated their immigration and organ invasion profiles in vivo, the EL-4 cells were treated ex vivo with GnRH-I or GnRH-II (10 nM, 48 h), loaded with a fluorescent dye, and inoculated into normal syngeneic C57BL/6 (H-2b) recipient mice. After 48 hours, the spleen, thymus, kidney, liver, bone marrow, and a fixed volume of blood were removed, individual cells suspensions were prepared and the number of labeled immigrating cells, as well as the total number of cells present in each organ (labeled+non-labeled) was counted by flow cytometry.

[1] = system: mouse antigen-specific T cells; assay: Atlas mouse cDNA expression array of GnRH-II treated T-cells; format: cell-based
Method: Anti-MBP 87-99 T-cell lines were established from lymph nodes of SJI/J mice as described^23 and analyzed for their specificity to MBP 87-99 peptide in a proliferation assay.
Poly A+RNA was extracted from the mouse anti-MBP 87-99 cell line before and after treatment with 10 nM GnRH-II for 24 hours, using the ATLAS Pure Total RNA Labeling System (Clontech Laboratories, Inc. Palo Alto, Calif.) according to manufacturers recommendations. Following DNase treatment, ^32P-labeled cDNA was prepared from poly A+ RNA preparations that were prepared from either untreated or GnRH-II treated mouse T-cells. Hybridizations to the ATLAS Mouse cDNA Expression Arrays membranes (Catalog No. PT3140-1, Clontech Laboratories), were performed according to the user manual, and the expression pattern was visualized by autoradiography.
Poly A+ RNA was prepared from both GnRH-II-treated and untreated cells and reverse transcribed to ^32P-labeled cDNA. Using an Atlas cDNA expression array (i.e. a positively charged nylon membrane spotted with 1200 different cDNAs) for identification of effected genes, the reverse transcribed products were characterized by hybridization to the atlas membranes. The differential pattern of expression between untreated cells and GnRH-II-treated cells was visualized by autoradiography (FIGS. 1A and 1B).

pGlu-His-Trp-Ser-Tyr-Gly-Leu-Arg-Pro-Gly-NH2 [GnRH-I]
migration of T-cells towards chemoattractant SDF-1 (normal human T-cells): directly increase the migration potential; also recorded: significantly augments | mean number of EL-4 labeled cells detected in the bone marrow (EL-4 T-lymphoma cells): 321400±15165 | increase in entry into bone marrow over untreated control cells (EL-4 T-lymphoma cells): 115% | entry of EL-4 cells into the spleen (EL-4 T-lymphoma cells): significant enhanced entry | level of EL-4 cells entry into thymus, kidney and liver, or their number in the plasma (EL-4 T-lymphoma cells): did not affect

B1: GnRH-II: unique ten amino acid long neuropeptide, 70% homologous in peptide structure to GnRH-I, encoded by its own gene (peptide)
peptide: QHWSHGWYPGGKRALSSAQDPQNALRPPGRALDTAAGSPVQTAHGLPSDALAPLDDSMPWEGRTTAQWSLHRKRHLARTLLTAAREPRPAPPSSNKV
expression of mRNA encoding non-integrin 67 kDa laminin receptor ([1]; 10 nM, 24 hours, resting mouse antigen-specific T-cells, vs untreated cells): induced the over expression | transcription of other genes including house-keeping gene nucleoside diphosphate kinase B ([1]; 10 nM, 24 hours, vs untreated cells): not affected | synthesis of CD4 antigen, Cyclin D2 and thymus cell antigen 1 genes (changed by antigenic stimulation) ([1]; GnRH-II alone 10 nM, data not shown): did not affect | migration of T-cells towards chemoattractant SDF-1 (normal human T-cells): directly increase the migration potential; also recorded: significantly augments | mean number of EL-4 labeled cells detected in the bone marrow (EL-4 T-lymphoma cells): 219280±14003 | increase in entry into bone marrow over untreated control cells (EL-4 T-lymphoma cells): 46% | entry of EL-4 cells into the spleen (EL-4 T-lymphoma cells): significant enhanced entry | level of EL-4 cells entry into thymus, kidney and liver, or their number in the plasma (EL-4 T-lymphoma cells): did not affect
